The target of test [1] is T1, human transporter associated with antigen processing (TAP), heterodimer of TAP1 and TAP2 (human, UniProt Q03518;Q03519). The test is described as follows: cryo-EM structure.
Test [2] deals with T1, human transporter associated with …. The test is described as follows: cryo-EM structure. The source holds these as a separate data set.

Like-named read-outs stand apart in the source and are kept apart here.

T1 sequence (Q03518 whole entry, chain 1 of 2): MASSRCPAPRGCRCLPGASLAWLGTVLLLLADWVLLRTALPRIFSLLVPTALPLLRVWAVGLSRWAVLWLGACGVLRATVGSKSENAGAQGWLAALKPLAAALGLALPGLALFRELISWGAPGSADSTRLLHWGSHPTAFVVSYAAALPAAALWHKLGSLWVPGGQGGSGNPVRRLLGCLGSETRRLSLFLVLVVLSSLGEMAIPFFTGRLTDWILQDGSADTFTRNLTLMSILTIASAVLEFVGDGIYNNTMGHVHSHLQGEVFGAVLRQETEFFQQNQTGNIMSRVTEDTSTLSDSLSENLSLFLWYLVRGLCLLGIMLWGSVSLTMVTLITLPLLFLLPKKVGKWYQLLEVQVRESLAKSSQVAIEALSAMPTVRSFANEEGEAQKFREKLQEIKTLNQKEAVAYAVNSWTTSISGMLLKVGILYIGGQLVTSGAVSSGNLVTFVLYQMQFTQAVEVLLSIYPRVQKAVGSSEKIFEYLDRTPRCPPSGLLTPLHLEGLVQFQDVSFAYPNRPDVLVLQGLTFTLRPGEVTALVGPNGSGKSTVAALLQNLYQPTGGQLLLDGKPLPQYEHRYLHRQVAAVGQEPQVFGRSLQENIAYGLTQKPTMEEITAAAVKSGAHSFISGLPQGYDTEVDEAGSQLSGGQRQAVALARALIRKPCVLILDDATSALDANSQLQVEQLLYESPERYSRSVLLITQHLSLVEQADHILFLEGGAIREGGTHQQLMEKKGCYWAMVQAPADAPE
T1 sequence (Q03519 whole entry, chain 2 of 2): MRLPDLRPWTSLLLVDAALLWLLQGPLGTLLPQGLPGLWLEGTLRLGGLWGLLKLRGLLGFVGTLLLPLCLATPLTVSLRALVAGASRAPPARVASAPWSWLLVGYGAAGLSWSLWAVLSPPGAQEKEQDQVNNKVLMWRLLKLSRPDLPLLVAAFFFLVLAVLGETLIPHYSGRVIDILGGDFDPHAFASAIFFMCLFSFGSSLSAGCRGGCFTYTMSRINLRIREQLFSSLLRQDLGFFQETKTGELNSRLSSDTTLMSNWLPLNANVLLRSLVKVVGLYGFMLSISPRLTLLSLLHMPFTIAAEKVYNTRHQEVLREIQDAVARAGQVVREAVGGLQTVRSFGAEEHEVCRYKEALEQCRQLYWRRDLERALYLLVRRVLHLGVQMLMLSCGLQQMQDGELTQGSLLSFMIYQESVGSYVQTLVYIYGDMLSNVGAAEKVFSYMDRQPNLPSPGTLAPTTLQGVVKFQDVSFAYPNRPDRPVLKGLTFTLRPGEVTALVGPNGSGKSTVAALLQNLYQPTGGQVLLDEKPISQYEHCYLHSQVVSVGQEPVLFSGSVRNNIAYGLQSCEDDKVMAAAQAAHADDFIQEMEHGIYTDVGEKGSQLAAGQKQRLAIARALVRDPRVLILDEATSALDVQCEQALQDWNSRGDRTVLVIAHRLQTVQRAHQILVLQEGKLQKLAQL

B1: b27 peptide (9-mer presented by HLA-B27) (peptide)
peptide: RRYQKSTEL
Regarding B1, in test [1], the binding result is on record as “binds”.

B2: a2 peptide (9-mer presented by HLA-A2) (peptide)
peptide: ILKEPVHGV
B2: in test [1], the binding result is “binds”.

B3: b27’’ peptide (7-mer) (peptide)
peptide: RRYSTEL
As to B3, the binding result in test [2] is “binds”.

For the origin of these results see publication doi:10.1101/2023.06.16.545308 (bioRxiv, 2023).
